Experimental data published in patent US20170081400A1 (CEPHALON, published 2017).

How the values were obtained:
[1] = target: T1, human TL1A extracellular domain with N-terminal HIS and FLAG tag (human, UniProt O95150 72-251); assay: SPR Run 6, purified Ab captured on Protein A, TL1A 5 ug/mL, timepoint 44
T1 construct: the whole entry is named
T1 sequence: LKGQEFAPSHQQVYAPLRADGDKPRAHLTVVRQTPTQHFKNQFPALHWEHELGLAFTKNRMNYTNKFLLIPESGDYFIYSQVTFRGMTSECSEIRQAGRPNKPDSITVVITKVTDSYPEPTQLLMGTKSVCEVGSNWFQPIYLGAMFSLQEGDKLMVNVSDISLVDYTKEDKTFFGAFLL
Source text: (§1) 1.5. Antibody expression and antigen binding as determined by SPR. Using a CM5 sensor chip (GE Healthcare) Protein A (Pierce) was coupled to the chip surface using an amine coupling kit (GE Healthcare). Protein A was coupled on flow cell 1 and 2 (or alternatively 3 and 4) using a BIACORE® T200. […] The amount of supernatant or purified protein (as well as the concentration) injected during the capture stage varied between runs and is specified in the header of the Tables 3-11. At the end of injection of the supernatant or purified antibody the change in response units was measured. This value was reported as Capture Level in Tables 3-11. […] The response units were measured prior to the end of the dissociation phase. […] The sensorgrams were double referenced (flow cell 2 is subtracted from flow cell 1 and a buffer blank). As there were a large number of antibody variants to screen, these were screened across different runs (Tables 3-11). […] A summary of the conditions used in each run is below:
(§2) 2.1. […] In some experiment the antibodies were purified using Protein A chromatography (See 1.4) and purified antibodies were used in BIACORE® (GE Healthcare) experiments.

[2] = target: T1, human TL1A extracellular domain with …; assay: SPR Run 6, purified Ab captured on Protein A, TL1A 5 ug/mL, timepoint 170
Source text: as §1, §2

B1: 320-437 (antibody, human IgG1, name in Kabat numbering, V domains shown)
VH: QVQLVQSGAEVKKPGASVKVSCKASGYTFTYYDINWVRQAPGQGLEWMGWLNPNSGNTGYAQKFQGRVTMTADRSTSTAYMELSSLRSEDTAVYYCAREVPETAAFEYWGQGTLVTVSS
VL: QSVLTQPPSVSGAPGQRVTISCTSSSSDIGAGLGVHWYQQLPGTAPKLLIEGYYNRPSGVPDRFSGSKSGTSASLTITGLLPEDEGDYYCQSYDGTLSALFGGGTKLTVLG
notes: human IgG1, lambda
TL1A Binding Level (Early) [1]: 119 RU | TL1A Binding Level (Late) [2]: 109 RU

B2: 320-438 (antibody, human IgG1, name in Kabat numbering, V domains shown)
VH: QVQLVQSGAEVKKPGASVKVSCKASGYTFTSADINWVRQAPGQGLEWMGWLNPNSGNTGYAQKFQGRVTMTADRSTSTAYMELSSLRSEDTAVYYCAREVPETAAFEYWGQGTLVTVSS
VL: QSVLTQPPSVSGAPGQRVTISCTSSSSDIGAGLGVHWYQQLPGTAPKLLIEGYYNRPSGVPDRFSGSKSGTSASLTITGLLPEDEGDYYCQSYDGTLSALFGGGTKLTVLG
notes: human IgG1, lambda
TL1A Binding Level (Early) [1]: 126 RU | TL1A Binding Level (Late) [2]: 116 RU

B3: 320-439 (antibody, human IgG1, name in Kabat numbering, V domains shown)
VH: QVQLVQSGAEVKKPGASVKVSCKASGYTFTSSDINWVRQAPGQGLEWMGWLNPNSGNTGYAQKFQGRVTMTADRSTSTAYMELSSLRSEDTAVYYCAREVPETAAFEYWGQGTLVTVSS
VL: QSVLTQPPSVSGAPGQRVTISCTSSSSDIGAGLGVHWYQQLPGTAPKLLIEGYYNRPSGVPDRFSGSKSGTSASLTITGLLPEDEGDYYCQSYDGTLSALFGGGTKLTVLG
notes: human IgG1, lambda
TL1A Binding Level (Early) [1]: 119 RU | TL1A Binding Level (Late) [2]: 108 RU

B4: 320-440 (antibody, human IgG1, name in Kabat numbering, V domains shown)
VH: QVQLVQSGAEVKKPGASVKVSCKASGYTFTSQDINWVRQAPGQGLEWMGWLNPNSGNTGYAQKFQGRVTMTADRSTSTAYMELSSLRSEDTAVYYCAREVPETAAFEYWGQGTLVTVSS
VL: QSVLTQPPSVSGAPGQRVTISCTSSSSDIGAGLGVHWYQQLPGTAPKLLIEGYYNRPSGVPDRFSGSKSGTSASLTITGLLPEDEGDYYCQSYDGTLSALFGGGTKLTVLG
notes: human IgG1, lambda
TL1A Binding Level (Early) [1]: 108 RU | TL1A Binding Level (Late) [2]: 97 RU

B5: 320-441 (antibody, human IgG1, name in Kabat numbering, V domains shown)
VH: QVQLVQSGAEVKKPGASVKVSCKASGYTFTSDDINWVRQAPGQGLEWMGWLNPNSGNTGYAQKFQGRVTMTADRSTSTAYMELSSLRSEDTAVYYCAREVPETAAFEYWGQGTLVTVSS
VL: QSVLTQPPSVSGAPGQRVTISCTSSSSDIGAGLGVHWYQQLPGTAPKLLIEGYYNRPSGVPDRFSGSKSGTSASLTITGLLPEDEGDYYCQSYDGTLSALFGGGTKLTVLG
notes: human IgG1, lambda
TL1A Binding Level (Early) [1]: 80 RU | TL1A Binding Level (Late) [2]: 67 RU

B6: 320-442 (antibody, human IgG1, name in Kabat numbering, V domains shown)
VH: QVQLVQSGAEVKKPGASVKVSCKASGYTFTSHDINWVRQAPGQGLEWMGWLNPNSGNTGYAQKFQGRVTMTADRSTSTAYMELSSLRSEDTAVYYCAREVPETAAFEYWGQGTLVTVSS
VL: QSVLTQPPSVSGAPGQRVTISCTSSSSDIGAGLGVHWYQQLPGTAPKLLIEGYYNRPSGVPDRFSGSKSGTSASLTITGLLPEDEGDYYCQSYDGTLSALFGGGTKLTVLG
notes: human IgG1, lambda
TL1A Binding Level (Early) [1]: 124 RU | TL1A Binding Level (Late) [2]: 113 RU

B7: 320-444 (antibody, human IgG1, name in Kabat numbering, V domains shown)
VH: QVQLVQSGAEVKKPGASVKVSCKASGYTFTSLDINWVRQAPGQGLEWMGWLNPNSGNTGYAQKFQGRVTMTADRSTSTAYMELSSLRSEDTAVYYCAREVPETAAFEYWGQGTLVTVSS
VL: QSVLTQPPSVSGAPGQRVTISCTSSSSDIGAGLGVHWYQQLPGTAPKLLIEGYYNRPSGVPDRFSGSKSGTSASLTITGLLPEDEGDYYCQSYDGTLSALFGGGTKLTVLG
notes: human IgG1, lambda
TL1A Binding Level (Early) [1]: 107 RU | TL1A Binding Level (Late) [2]: 95 RU

B8: 320-446 (antibody, human IgG1, name in Kabat numbering, V domains shown)
VH: QVQLVQSGAEVKKPGASVKVSCKASGYTFTSYAINWVRQAPGQGLEWMGWLNPNSGNTGYAQKFQGRVTMTADRSTSTAYMELSSLRSEDTAVYYCAREVPETAAFEYWGQGTLVTVSS
VL: QSVLTQPPSVSGAPGQRVTISCTSSSSDIGAGLGVHWYQQLPGTAPKLLIEGYYNRPSGVPDRFSGSKSGTSASLTITGLLPEDEGDYYCQSYDGTLSALFGGGTKLTVLG
notes: human IgG1, lambda
TL1A Binding Level (Early) [1]: 18 RU | TL1A Binding Level (Late) [2]: 8 RU
